Experimental findings from patent US20190015484A1, “NICOTINE-DEGRADING ENZYMES FOR TREATING NICOTINE ADDICTION AND NICOTINE POISONING” (priority 2015, published 2019) are described below.

Where “and” joins values, the source holds several entries; their conditions need not be identical. Equal values may be shown once. Entries after “also recorded” stand apart in the source; their conditions may differ.

Series [1] is described as follows: NicA2 degradation of nicotine in mouse serum. Format: biochemical. To be noted: 125, 250, 500 nM nicotine, 20 nM NicA2, mouse serum, 30 min. As to the method: FIGS. 5A-5D illustrate the stability of the NicA2 enzyme. FIG. 5A graphically illustrates the thermal stability of the NicA2 enzyme as a function of temperature. FIG. 5B illustrates the stability of NicA2 at 37° C. in HEPES buffer (pH=7.4) as a function of time. […] FIG. 5C illustrates the stability of NicA2 in mouse serum at 37° C. over time. FIG. 5D graphically illustrates the ability of NicA2 to degrade nicotine in mouse serum. Concentrations of 125, 250, 500 nM nicotine with and without enzyme (20 nM NicA2) were incubated in serum for 30 min. Residual nicotine remaining after this time period was measured.
As a means to test NicA2's efficiency “in vivo”, nicotine was doped with or without enzyme in serum (FIG. 5D). […] To further substantiate a conclusion that NicA2 can remove nicotine in vivo, NicA2's catabolism of nicotine was simulated based upon foregoing kinetic constants that were determined. NicA2 specificity constant is approximately 10^5 M^−1s^−1 and while clearly far from a perfect enzyme (10^8-10^9 M^−1s^−1).

The nature of series [2]: NicA2 Michaelis-Menten assay (LC-MS). Format: biochemical. As to the method:
NicA2 activity was determined by LC-MS using Agilent 1260 Infinity liquid chromatography system with 6130 quadrupole mass spectrometry. 20 μl of each sample was injected to a Poroshell 120 EC-C8 column (4.6×50 mm, 2.7 μm, Agilent Technologies) subjected to a gradient (A to B where A=0.1% formic acid in water and B=0.1% formic acid in acetonitrile) of 0% B for 3 min, 0% B to 100% B from 3 to 7 min, and 100% B from 7 to 10 min at a constant flow rate of 0.5 ml/min. A column-solvent equilibration time of 3 min was conducted prior to next sample analysis. MS operational parameters were: API-ES mode, channel 1 (90%) positive single ion monitoring (SIM) of m/z 179 (30%), 161 (30%), 166 (30%) and 163 (10%), corresponding to the M+ peak of the reaction products, labeled internal standard and substrate respectively and channel 2 (10%) scan for positive ions; nitrogen as a nebulizing and drying gas (35 psi, 12 L/min), HV capillary voltage at 4 kV and the drying gas temperature to 300° C. To protect the detector from salts in the buffer, MS was turned on with a delay 1.4 min after injection.
Nicotine was solubilized in ddH2O to a concentration of 10 mM as stock and diluted with HEPES buffer (50 mM, pH=7.4) in the assay. Then 100 μL nicotine solution was mixed with 100 μL NicA2 solution to obtain final concentrations of 0.0625, 0.125, 0.25, 0.5, 1, 2 […] and 10 nM NicA2. After incubating at room temperature for 20 min, 20 μL nicotine methyl D-3 (2 μM in 20% TFA/H2O) solution was added to the mixture as an internal standard and to quench the reaction as well. The samples were injected into the LC-MS for analysis.
For standard curve generation, 0.03125, 0.0625, 0.125, 0.25, 0.5, 1, 2 μM nicotine and 0.4 μM NicA2 was tested and incubated for 2 h for complete oxidation of nicotine.
For the assay at 37° C., all the operations were undertaken in a warm room (37° C.) and solutions were pre-warmed to 37° C. Subsequently protocols were followed as described, vide supra.
Raw data was obtained with Agilent ChemStation, ions with m/z 179,161 (products), 166 (internal standard), 163 (nicotine) were extracted from MS channel 1 (SIM). The area of each peak was integrated and divided by internal standard (IS).
Data was further analyzed with Prism 6.0. For standard curves, the ratios of products to IS were plotted against concentrations of converted nicotine and fitted with linear regression. For experiment data, the ratios were fitted to the standard curves to obtain converted nicotine concentration, and then divided by reaction time (20 min) to get v0. These v0 were plotted against substrate nicotine concentrations using he Michaelis-Menten model to obtain Km and Vmax.
Upon reaction of nicotine with NicA2, three products were observed by LC-MS, one with m/z 179 (4) and two inseparable nicotine metabolites with m/z 161 (1 and 2, FIG. 2). Due to the limitation of instrument sensitivity and the dynamic equilibration of the products, direct quantification of the enzyme's efficiency was challenging. To compensate for these shortcomings, the product peaks 1, 2 and 4 were integrated in order to back-calculate the amount of nicotine consumed by NicA2. Standard curves were generated wherein nicotine was fully oxidized by NicA2 and the m/z 161/179 signals were plotted against a change in nicotine concentration, to provide a direct linear relationship (FIG. 3). The kinetic parameters of the enzyme were thus accurately determined.
To determine kinetic parameters of the enzyme, curves were generated at varying nicotine concentrations utilizing 10 nM NicA2 at room temperature. Samples were analyzed by LC-MS using nicotine (methyl-D3) as an internal standard. Target m/z values (161, 179 and 166) were extracted, integrated and fit to obtain the velocity, v0.

The nature of series [3]: NicA2 stability assay in HEPES buffer at 37° C. To be noted: HEPES buffer pH=7.4. On the procedure: Four μM nicotine and 40 nM NicA2 were prepared in HEPES buffer and stored at 37° C. Upon sitting for 0, 1, 3, 4, 5, 8, 12, 16, 20, or 25 days, 100 μL of each solution was extracted, mixed, incubated, quenched, analyzed as detailed, vide supra.
To test for these metrics, NicA2 was incubated at 37° C. in HEPES buffer and enzyme activity was examined at different time points.

Series [4] in a line: NicA2 co-factor assay (FAD or FMN). Format: biochemical. To be noted: 40 μM FMN or FAD, room temperature. On the procedure: An FAD or FMN stock solution was added to nicotine HEPES solution to obtain 80 μM FAD or FMN mixed with 4 μM nicotine. 100 μL each sample was mixed with
100 μL 40 nM NicA2 and incubated at room temperature for 20 min. An additional sample without FAD or FMN was prepared at the same time as the control. The samples were analyzed as described above.

B1: NicA2: flavin-containing nicotine-degrading enzyme of Pseudomonas putida S16, amino acid sequence SEQ ID NO:1 (protein)
chain: MSDKTKTNEGFSRRSFIGSAAVVTAGVAGLGAIDAASATQKTNRASTVKGGFDYDVVVVGGGFAGATAARECGLQGYRTLLLEARSRLGGRTFTSRFAGQEIEFGGAWVHWLQPHVWAEMQRYGLGVVEDPLTNLDKTLIMYNDGSVESISPDEFGKNIRIAFEKLCHDAWEVFPRPHEPMFTERARELDKSSVLDRIKTLGLSRLQQAQINSYMALYAGETTDKFGLPGVLKLFACGGWNYDAFMDTETHYRIQGGTIGLINAMLTDSGAEVRMSVPVTAVEQVNGGVKIKTDDDEIITAGVVVMTVPLNTYKHIGFTPALSKGKQRFIKEGQLSKGAKLYVHVKQNLGRVFAFADEQQPLNWVQTHDYSDELGTILSITIARKETIDVNDRDAVTREVQKMFPGVEVLGTAAYDWTADPFSLGAWAAYGVGQLSRLKDLQAAEGRILFAGAETSNGWHANIDGAVESGLRAGREVKQLLS
modifications: His tag
As to B1, the “nicotine consumed in serum” value in series [1] is listed as “consumed all nicotine”. In series [2], the specificity constant entry is reported as “approximately 10^5 M^−1s^−1”. In addition, the Km (as a rule, the substrate concentration at which the rate is half of its maximum) in series [2] (37° C.) was 0.092 µM and 0.0919 µM; in series [2] (room temperature, m/z 161, 10 nM NicA2) it was 0.0462 ± 0.0064 µM; in series [2] (room temperature, m/z 179, 10 nM NicA2) it was 0.043 µM and 0.0435 µM. In addition, the kcat result in series [2] (37° C.) was “(1.32±0.04)×10^−2 s^−1”; in series [2] (room temperature, m/z 161) it was “(7.02 ± 0.23) × 10^−3 s^−1”; in series [2] (room temperature, m/z 179) it was “(6.64 ± 0.17) × 10^−3 s^−1”. Further, the “stability and activity in HEPES buffer” value in series [3] is on record as not below 3 weeks. In series [3], the “v0 over the duration of the study” value is “remained virtually constant”. Further, the “effect of added FMN or FAD on NicA2 activity” value in series [4] is listed as “no change in NicA2 activity; also recorded: did not affect the activity”.
